Reference: US20250282869A1 (Amgen, published 2025)

Tests used:
[1] = molecular target: T1, human delta-like ligand 3 (DLL3) (human, UniProt Q9NYJ7 27-618); test: cell-based or functional assay
T1 sequence (looked up): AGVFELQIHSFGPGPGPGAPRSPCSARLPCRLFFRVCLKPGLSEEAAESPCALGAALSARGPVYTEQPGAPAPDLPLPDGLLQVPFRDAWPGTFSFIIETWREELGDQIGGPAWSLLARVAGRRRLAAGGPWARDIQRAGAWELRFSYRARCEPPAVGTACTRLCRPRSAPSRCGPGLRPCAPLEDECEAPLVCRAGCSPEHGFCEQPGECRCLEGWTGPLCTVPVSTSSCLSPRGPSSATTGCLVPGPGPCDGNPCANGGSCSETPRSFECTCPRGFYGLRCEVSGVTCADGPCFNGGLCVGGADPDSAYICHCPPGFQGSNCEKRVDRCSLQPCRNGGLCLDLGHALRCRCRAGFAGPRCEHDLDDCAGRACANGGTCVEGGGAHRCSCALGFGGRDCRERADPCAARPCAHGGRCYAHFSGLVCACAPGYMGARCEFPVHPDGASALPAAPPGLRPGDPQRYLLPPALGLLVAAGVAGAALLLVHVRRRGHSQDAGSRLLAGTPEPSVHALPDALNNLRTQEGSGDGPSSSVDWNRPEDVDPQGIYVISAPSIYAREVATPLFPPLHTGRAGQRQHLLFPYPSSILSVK

[2] = molecular target: T2, cynomolgus monkey DLL3 (cynomolgus monkey, UniProt A0A2K5WSR1 27-584); test: cell-based or functional assay
T2 sequence: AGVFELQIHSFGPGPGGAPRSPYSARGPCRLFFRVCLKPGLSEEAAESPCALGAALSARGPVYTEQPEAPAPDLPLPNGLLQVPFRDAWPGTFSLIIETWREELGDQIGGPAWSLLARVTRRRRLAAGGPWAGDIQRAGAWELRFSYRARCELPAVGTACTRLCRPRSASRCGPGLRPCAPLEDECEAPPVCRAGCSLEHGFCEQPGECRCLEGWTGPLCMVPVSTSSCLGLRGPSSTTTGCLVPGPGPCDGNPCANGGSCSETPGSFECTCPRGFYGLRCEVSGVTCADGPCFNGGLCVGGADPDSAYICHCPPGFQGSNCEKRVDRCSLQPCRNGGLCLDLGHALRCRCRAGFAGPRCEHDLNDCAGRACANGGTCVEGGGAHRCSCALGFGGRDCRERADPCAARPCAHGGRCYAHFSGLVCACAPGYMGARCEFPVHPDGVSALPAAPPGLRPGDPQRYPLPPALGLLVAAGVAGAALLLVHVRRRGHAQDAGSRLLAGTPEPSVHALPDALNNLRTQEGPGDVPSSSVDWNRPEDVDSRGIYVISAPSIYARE

[3] = molecular target: T3, CD3ε (aa 1-27)-chicken albumin fusion protein, human (human; chicken, UniProt P07766 22-48); test: SPR, CD3ε (aa 1-27)-chicken albumin immobilized on CM5 chip, construct in solution
T3 construct: range 1-27; Immobilized on CM5 sensor chips; The order of the parts follows the printed name; also called Human CD3; CD3E fusion protein; not shown: chicken albumin
Description: CD3 binding affinity was evaluated using surface plasmon resonance. A CD3E fusion protein (CD3ε (aa 1-27)-chicken albumin) was immobilized on CM5 Sensor Chips in the presence of a sodium acetate buffer (pH 4.5). The DLL3 multichain TCE proteins described above diluted in HBS-EP buffer were applied at different concentrations to determine the molecule association rates with CD3ε. HBP-EP buffer alone was then added to allow analysis of the molecule dissociation rates.

[4] = molecular target: T1, human delta-like ligand 3 (DLL3); test: flow cytometry, on-cell binding to CHO cells stably expressing human DLL3, anti-Fc detection
Description: (§1) In particular, on-cell binding affinity for DLL3 was evaluated using Chinese Hamster Ovary (CHO) cells engineered to stably express either human or cynomolgus monkey DLL3. The engineered CHO cells were incubated with DLL3 multichain TCE proteins comprising two different DLL3-binders (“DLL3_1” or “DLL3_2”) for 4 hours at 4° C. in buffer (phosphate buffered saline with 1% fetal bovine serum). After incubation, the cells were washed in buffer, and then bound DLL3 multichain proteins were detected by incubation with a fluorescently labeled antibody directed to the fragment crystallizable (Fc) region of the proteins. Bound proteins were analyzed by flow cytometry and the EC50 values were calculated from non-linear regression analysis using GraphPad Prism.

[5] = molecular target: T2, cynomolgus monkey DLL3; test: flow cytometry, on-cell binding to CHO cells stably expressing cynomolgus monkey DLL3, anti-Fc detection
Description: as §1

T3 sequence (P07766 22-48 limits assumed): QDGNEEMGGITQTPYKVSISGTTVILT

B1: DLL3_2 hetero IgG (SEFL2)(YTE) (bispecific antibody)
heavy 1: not shown
light 1: DIVMTQTPLSLSVTPGQPASISCKSSQSLLHSDGKTFLYWYLQKPGQPPQLLIYEVSNRFSGVPDRFSGSGSGTDFTLKISRVEAEDVGVYYCLQGIHLPFTFGPGTKVEIKRTVAAPSVFIFPPSDEQLKSGTASVVCLLNNFYPREAKVQWKVDNALQSGNSQESVTEQDSKDSTYSLESTLTLSKADYEKHKVYACEVTHQGLSSPVTKSFNRGEC
heavy 2: EVQLVESGGGLVQPGGSLKLSCAASGFTFNKYAINWVRQAPGKGLEWVARIRSKYNNYATYYADAVKDRFTISRDDSKNTVYLQMNNLKTEDTAVYYCARAENIGTSYISYWAYWGQGTLVTVSSASTKGPSVFPLAPSSKSTSGGTAALGCLVKDYFPEPVTVSWNSGALTSGVHTFPAVLQSSGLYSLESVVTVPSSSLGTQTYICNVNHKPSNTKVDKKVEPKSCDKTHTCPPCPAPELLGGPSVFLFPPKPKDTLYITREPEVTCVVVDVSHEDPEVKFNWYVDGVEVHNAKTKPCEEQYGSTYRCVSVLTVLHQDWLNGKEYKCKVSNKALPAPIEKTISKAKGQPREPQVYTLPPSRKEMTKNQVSLTCLVKGFYPSDIAVEWESNGQPENNYKTTPPVLKSDGSFFLYSKLTVDKSRWQQGNVFSCSVMHEALHNHYTQKSLSLSPGK
light 2: not shown
[1]
  T cell dependent cellular cytotoxicity (TDCC) EC50, CHO-huDLL3: 0.1 nM
[2]
  T cell dependent cellular cytotoxicity (TDCC) EC50, CHO-cyno DLL3: 0.0227 nM
[3]
  Kd: 7.84 nM
[4]
  EC50: 0.035 nM
[5]
  EC50: 0.04 nM
